# Data taken from the supplement of paper PMC12042874.
# ± gives the uncertainty stated by the source.
# Experiment: amyloid nucleation score (Sup35N fusion, yeast selection) (log enrichment); library NNK3; higher = more nucleation; inactive = no reads after selection
# Outline: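 Libraries of peptides of 20 random codons fused to Sup35N were expressed in psi-negative yeast and induced 24 hours with 100 μM copper sulfate. Selection was 7 days at 30°C on medium lacking adenine and uracil, and plasmid inserts were Illumina-sequenced before and after selection. Nucleation score is the DiMSum log enrichment of output over input reads, centred on the mode score of non-aggregating sequences, and sequences with under 100 input reads were left out.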
row,Substance,amyloid nucleation score
1,WMYHMHENYN,1.18 ± 0.1
2,ACLYY,inactive
3,VFNRSSAT,inactive
4,IVEDVGYLHLYRIQFGGVSE,inactive
5,VLCPFRLFMSNTYLTFAMSC,inactive
6,TRIFVCVFVCTTPTMHAPIW,0.921 ± 0.23
7,LIISFKYCFPWKVVSTSVYN,1.17 ± 0.17
8,PETMCLGAKRFITGRETREL,0.588 ± 0.14
9,SNPGSALDIMGTNQIYPSQH,inactive
10,CCAGSLLLNRVQV,inactive
11,KLSLMAVNLSWIYFCL,0.182 ± 0.27
12,YGSYVWYSLLVREWLNSPGY,inactive
13,LLGRSLH,inactive
14,YFSFFQRVLWYRCAASFNLQ,-0.106 ± 0.63
15,SVYPVFPTLFNSSYFSGTFG,inactive
16,EFMILDLCMG,inactive
17,VRHVITSSG,inactive
18,CWHCVIDAGFLSQYVRVFYS,inactive
19,SRKALVYGSVKRLSIMSAWV,-0.626 ± 0.96
20,TNMHYMSHYLETTPFTTGMV,inactive
21,VLTLIFFYFRISCICPFLL,inactive
22,MCSAEA,inactive
23,KDPEVQVRK,inactive

row,Substance,amyloid nucleation score
1,PSPLDSRLEHYRMDSTCRVV,inactive
2,CPYALMWSLSYSWSFPYRMS,0.286 ± 0.56
3,YYWTKGGFKEITI,inactive
4,FCVIMSM,inactive
5,FITFHENDAVELEG,inactive
6,SQSFYLFLGQRSRTY,1.33 ± 0.11
7,NRYRTYVCLKDKRRSFKSGM,inactive
8,IPVQFFVQIRSGIVHFWHER,1.81 ± 0.11
9,NAFGYSDVTVLVNSSLFESY,inactive
10,FLCMMTVVYQFVWMMMQGAV,inactive
11,NKRLAQRQWDTACFQKG,inactive
12,FYSWDIHGCIVHSIYV,inactive
13,EPVFCMWLDMGLGPNDCRMA,inactive
14,SSVDSSFANCCVISKRNHML,inactive
15,EVVPCCF,inactive
16,SMQVQMTWLCDRSSLGQRNL,1.61 ± 0.074
17,GYYLLTVCGDWCSVSVHSGF,2.13 ± 0.078
18,YRGLGRDSHTHCRNHVLLTL,inactive
19,LCGDYGV,inactive
20,SCDNYVVLTHEFVLSHSKSL,1.01 ± 0.14
21,TMVTTNEIT,0.092 ± 0.29
22,VWNFPNILCFGWIFRA,1.64 ± 0.093
23,CGVSWTVSIITDTFICN,2.76 ± 0.06

row,Substance,amyloid nucleation score
1,SDSGLKKV,inactive
2,SGCGLMQNGMSCLIEFTVAK,inactive
3,VRHNLLGCLLGSFLGASSNR,-0.306 ± 0.37
4,YFSQVGRDCMFR,inactive
5,ANYVCKNAVYVMQNNGLVH,inactive
6,LVWYKSDLISIVRHTVDSCC,inactive
7,GSVSYLNMTVFFSTVLFIYT,inactive
8,TIRYRIQVNSCHESVIAGYT,inactive
9,SELHK,inactive
10,VLCAYK,inactive
11,LHPLYRFSANSSKDLFTSRL,inactive
12,CDWFILKA,inactive
13,WDNWSTIRWTVYALSRKSAR,inactive
14,SITRWFHTVMSIFKFYFEFD,inactive
15,REAYDLFSCIDYVLNFMFNY,inactive
16,DTFACCPRWNLCGENTLPYI,2.33 ± 0.06
17,ILMELPRRRMWSLKALSLMY,inactive
18,TSTNNSRKYSSQRRWMHPLG,inactive
19,NYVCGVIAVNVVMNSSNNWR,2.66 ± 0.051
20,RTSYNTFGGFYTNGWTLILR,inactive
21,NQWLCLHLCQR,inactive
22,FVYLSSKYIMSQMFKGKQMY,inactive
23,HNQKSCVYMSEGSWRSL,inactive

row,Substance,amyloid nucleation score
1,CHYRYISYVENFPCSERVSI,inactive
2,KWGSATTCFI,0.067 ± 0.31
3,LSMLI,inactive
4,VKGQCHYYLLSQLSGSSPVI,inactive
5,PDFNLWRTEMLSYNGWK,inactive
6,VYQSTSKF,inactive
7,FYRCLLNH,inactive
8,DFNDSLFLPRIDTPSLVFLQ,inactive
9,LSYNRKEYGNRPGFSEYSST,inactive
10,SYSIWSLLEIDF,inactive
11,SYRPMHTDGLSLYSRQNLSY,inactive
12,KLICKERYVVYSVILVLKEL,inactive
13,ASLLLTYWVVTEVCRLDLGL,inactive
14,NRENFMVTLLSLWTCNTCQV,2.46 ± 0.054
15,QQEMCTLFFRN,inactive
16,PLKGDTVSYCGV,inactive
17,KIGSLVKECCGLPVYYALLK,inactive
18,PLVDPLGELYAATFCSGEYC,inactive
19,AGDLNYRSGLSGRNYARGFT,inactive
20,SNPHIILID,inactive
21,KVFFVRTIIKVRVAGCSVRV,inactive
22,MIYAFVGYGVGTSGGVARES,inactive
23,CVLNW,inactive

row,Substance,amyloid nucleation score
1,DDSLDVSCLEYRSAME,inactive
2,FRYVWFCYCMNVERVENVRL,inactive
3,RGDMMGLSTENTLLLYDVGR,inactive
4,KFNVFPIHGALWTCSVSAYH,inactive
5,LDLFVV,inactive
6,ISMNLVLFMWFRRIGFLICL,inactive
7,TDSPLRLKRDYSPNSFCRSG,0.005 ± 1.1
8,KFGWWLFDSVSDTNLWYRRS,inactive
9,FFSSPFMFPASGATVPQRFQ,inactive
10,LGAVCVQMKKIDLSKTLETR,inactive
11,SFELVQWDS,inactive
12,QNVKIRRGICEEFYRRVQLD,inactive
13,MCMYVKMYLNGSLFVYMTSK,inactive
14,RLSGNADYNNWTF,0.436 ± 0.67
15,TCVWRHAWQSGAHRVVRLAW,inactive
16,VKLKNLSCKRLLRRHSACHR,inactive
17,DGYKMCRDGIGWIGT,inactive
18,CWYQPPNDNVYFMMILYI,1.97 ± 0.084
19,SYRAARNFHMFLLYWHGTRW,inactive
20,KSGRSCYIFVYMWQLTVYSG,inactive
21,EFNNFYFCFFTV,2.71 ± 0.064
22,LQKGGNITCTVNHFMWVFAH,0.592 ± 0.32
23,GRTWFKYPHSDSGCSFWLTA,inactive

row,Substance,amyloid nucleation score
1,EEVAGSTYIISSVVVYSRAG,1.57 ± 0.14
2,YSRSGISFFTGRHKLFSMYG,inactive
3,VRNILRLNRFCWCKTLQKIA,inactive
4,VNRNFILSSLVH,inactive
5,HYLAIYGVGCCNFYSYTAVC,1.28 ± 0.085
6,VDWKVAR,inactive
7,DCNSVFVLRVFNSVLFGIKD,inactive
8,DMISFKMLQYCWCSSCVFSH,2.18 ± 0.088
9,CFVGLRSGAVSCWGQGNYVA,inactive
10,RGRIVLNQRLNCDDEDGISE,inactive
11,YCVQYVNDRQL,1.85 ± 0.082
12,RGYSFCRPSHWWKARCVEGE,inactive
13,RLASGLNPFYVRG,inactive
14,YLICLVWKELLARAHIAELC,0.28 ± 0.2
15,STYRHLDRSL,inactive
16,SGHSAFGKKGLRGM,inactive
17,ILWLLILTFLNRRARCIEQN,-0.567 ± 0.51
18,VRLCRGS,inactive
19,ILVLDSWYVACTTACKGTNK,-1.57 ± 2.5
20,PYQDIMNSQESGGDE,inactive
21,TKNRVYQWMSLSGM,0.828 ± 0.12
22,LRGILSIVLVCGENYIKHCG,inactive
23,SYFFVIQGQLGCITGVDFIW,inactive

row,Substance,amyloid nucleation score
1,LSFLTHCRHSWVRVRDILWA,inactive
2,VPGELGALGQACLKEDFSKG,inactive
3,DIPAVINVMGSVYDGR,inactive
4,RQYRSLRFSVLVYPSHISKG,0.544 ± 0.17
5,RIYKNRSSSGILLNERFPGL,-0.46 ± 1.3
6,VREMGLTHFTASLYRGEMPG,inactive
7,PVLPQGLRVLYDSVSVTSHL,inactive
8,KQVTVNTLMSPPVRYL,inactive
9,CFLRWNRFL,0.106 ± 1.1
10,KVYRKKPIGYVECLLSPLKA,inactive
11,HMNGEDESDNGYIHFLRRER,inactive
12,NSYFGMWVITGFFLASMCIR,inactive
13,ATGYGL,inactive
14,GWKLSSVGNKRDCSSMHVDR,0.101 ± 0.19
15,HAWTQPNHI,inactive
16,GVNWFSIQFNIWVLSRDADL,3.36 ± 0.06
17,LDPEP,inactive
18,CMDYYKMYISYYFDAGWVLS,inactive
19,LYNRKHFTSM,-0.638 ± 0.96
20,KLYLLLLYFLDMTVFWFVAV,inactive
21,RPFLSMS,inactive
22,RECWMKPNLNSNTYSEMICE,0.011 ± 0.81
